Molecular target: SARS-CoV-2 spike protein RBD, original (wild-type), sfGFP fusion (SARS-CoV-2) (UniProt P0DTC2)
Assay: SPR; Biacore T200; […] (0.01 M HEPES, 0.15 M NaCl, 3 mM EDTA, 0.05% surfactant P20, […]

## Jacalin (natural protein)
  Kd: 428 nM
